# Reference: patent US12551571B2, “Protease-cleavable substrates and methods of use thereof” (CytomX Therapeutics, Inc., priority 2022, dated 2026)
# Square brackets hold non-standard residues; d marks the D form. Ends that are not written are not given here. Peptide text beside a SMILES is read from it. * marks the point of attachment. Dnp = O=[N+]([O-])c1ccc(*)c([N+](=O)[O-])c1; Mca = COc1ccc2c(CC(=O)*)cc(=O)oc2c1
# Experiments:
# [1] = system: supernatant from human bone marrow aspirates; test: In situ stability of peptide probes in supernatant from human bone marrow aspirates; details: 20 μM peptide probe, 37° C.
# MMP2 = molecular target: T1, MMP2 (Homo sapiens, UniProt P08253); test: Internally quenched peptide probe cleavage assay, MMP2; format: biochemical; details: internally quenched peptide probe 20 μM (20 pM in source), 20 nM protease, 37° C.
# T1 sequence (P08253 110-660): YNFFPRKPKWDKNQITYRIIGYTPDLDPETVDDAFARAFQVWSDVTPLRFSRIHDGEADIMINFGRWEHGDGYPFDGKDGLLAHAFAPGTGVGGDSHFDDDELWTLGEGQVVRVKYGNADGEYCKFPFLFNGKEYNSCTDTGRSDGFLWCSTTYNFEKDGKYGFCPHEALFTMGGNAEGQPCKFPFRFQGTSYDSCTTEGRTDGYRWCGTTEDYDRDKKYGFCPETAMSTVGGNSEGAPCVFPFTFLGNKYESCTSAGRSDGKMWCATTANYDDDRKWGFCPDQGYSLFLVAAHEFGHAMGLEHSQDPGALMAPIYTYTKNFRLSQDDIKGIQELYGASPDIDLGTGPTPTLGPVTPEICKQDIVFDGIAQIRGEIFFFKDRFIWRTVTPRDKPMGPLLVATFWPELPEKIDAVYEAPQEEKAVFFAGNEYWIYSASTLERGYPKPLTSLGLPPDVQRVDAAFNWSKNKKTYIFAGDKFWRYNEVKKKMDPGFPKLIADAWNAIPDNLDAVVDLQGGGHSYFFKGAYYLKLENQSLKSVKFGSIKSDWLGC
# Procedure: (§1) The CMs listed in Table 9 below were presented in an internally quenched peptide probe format, rather than included in an activatable antibody format. […] Cleavability kinetics (i.e., pM/s and kcat/KM (M^-1s^-1)) were determined in 96- or 384-well plate format at 37° C. in the following buffers: 50 mM TRIS-HCl (pH 7.4), 150 mM NaCl, 0.05% Tween 20 for MT-SP1, 50 mM Tris-HCl (pH 7.5), 10 mM CaCl2, 150 mM NaCl, 0.05% (w/v) Brij-35 for MMP2 and MMP9, and 50 mM HEPES (pH 6.8), 10 mM CaCl2, 0.5 mM MgCl2, 0.05% (w/v) Brij-35 for MMP14. Cleavability kinetics were determined on an Infinite 200 PRO (Tecan) multimode plate reader using a fluorescence excitation wavelength of 320 nm and an emission wavelength of 405 nm. […] The CMs listed in Table 12 below were presented in an internally quenched peptide probe format, rather than included in an activatable antibody format. […] Cleavability kinetics (i.e., pM/s) were determined in 96- or 384-well plate format at 37° C. in the following buffers: 50 mM TRIS-HCl (pH 7.4), 150 mM NaCl, 0.05% Tween 20 for MT-SP1, 50 mM Tris-HCl (pH 7.5), 10 mM CaCl2, 150 mM NaCl, 0.05% (w/v) Brij-35 for MMP2 and MMP9, and 50 mM HEPES (pH 6.8), 10 mM CaCl2, 0.5 mM MgCl2, 0.05% (w/v) Brij-35 for MMP14. Cleavability kinetics were determined on an Infinite 200 PRO (Tecan) multimode plate reader using a fluorescence excitation wavelength of 320 nm and an emission wavelength of 405 nm.
# MMP14 = MMP14 (Homo sapiens, UniProt P50281); test: Internally quenched peptide probe cleavage assay, MMP14; format: biochemical; details: internally quenched peptide probe 20 μM (20 pM in source), 20 nM protease, 37° C.
# Procedure: as §1
# MMP9 = MMP9 (Homo sapiens, UniProt P14780); test: Internally quenched peptide probe cleavage assay, MMP9; format: biochemical; details: internally quenched peptide probe 20 μM (20 pM in source), 20 nM protease, 37° C.
# Chain of MMP9 (P14780 94-707): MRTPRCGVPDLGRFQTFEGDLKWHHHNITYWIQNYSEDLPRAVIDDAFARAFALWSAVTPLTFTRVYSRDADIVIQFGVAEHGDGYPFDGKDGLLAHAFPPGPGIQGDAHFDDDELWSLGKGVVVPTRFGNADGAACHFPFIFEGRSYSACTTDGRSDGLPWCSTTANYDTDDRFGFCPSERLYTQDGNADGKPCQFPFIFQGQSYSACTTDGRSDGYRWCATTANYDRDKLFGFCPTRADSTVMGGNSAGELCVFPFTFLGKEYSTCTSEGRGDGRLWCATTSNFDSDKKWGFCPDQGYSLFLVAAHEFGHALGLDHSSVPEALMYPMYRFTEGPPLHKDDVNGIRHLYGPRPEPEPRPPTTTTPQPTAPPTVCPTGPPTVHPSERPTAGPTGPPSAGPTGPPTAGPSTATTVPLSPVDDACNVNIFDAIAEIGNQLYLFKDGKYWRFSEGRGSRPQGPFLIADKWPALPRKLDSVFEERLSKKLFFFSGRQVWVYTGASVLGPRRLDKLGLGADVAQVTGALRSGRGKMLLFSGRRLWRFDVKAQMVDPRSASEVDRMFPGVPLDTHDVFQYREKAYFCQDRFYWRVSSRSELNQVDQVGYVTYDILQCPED
# Procedure: as §1
# MT-SP1 = molecular target: T2, MT-SP1 (Homo sapiens, UniProt Q9Y5Y6); test: Internally quenched peptide probe cleavage assay, MT-SP1; format: biochemical; details: internally quenched peptide probe 20 μM (20 pM in source), 20 nM protease, 37° C.
# T2 sequence (Q9Y5Y6 1-855): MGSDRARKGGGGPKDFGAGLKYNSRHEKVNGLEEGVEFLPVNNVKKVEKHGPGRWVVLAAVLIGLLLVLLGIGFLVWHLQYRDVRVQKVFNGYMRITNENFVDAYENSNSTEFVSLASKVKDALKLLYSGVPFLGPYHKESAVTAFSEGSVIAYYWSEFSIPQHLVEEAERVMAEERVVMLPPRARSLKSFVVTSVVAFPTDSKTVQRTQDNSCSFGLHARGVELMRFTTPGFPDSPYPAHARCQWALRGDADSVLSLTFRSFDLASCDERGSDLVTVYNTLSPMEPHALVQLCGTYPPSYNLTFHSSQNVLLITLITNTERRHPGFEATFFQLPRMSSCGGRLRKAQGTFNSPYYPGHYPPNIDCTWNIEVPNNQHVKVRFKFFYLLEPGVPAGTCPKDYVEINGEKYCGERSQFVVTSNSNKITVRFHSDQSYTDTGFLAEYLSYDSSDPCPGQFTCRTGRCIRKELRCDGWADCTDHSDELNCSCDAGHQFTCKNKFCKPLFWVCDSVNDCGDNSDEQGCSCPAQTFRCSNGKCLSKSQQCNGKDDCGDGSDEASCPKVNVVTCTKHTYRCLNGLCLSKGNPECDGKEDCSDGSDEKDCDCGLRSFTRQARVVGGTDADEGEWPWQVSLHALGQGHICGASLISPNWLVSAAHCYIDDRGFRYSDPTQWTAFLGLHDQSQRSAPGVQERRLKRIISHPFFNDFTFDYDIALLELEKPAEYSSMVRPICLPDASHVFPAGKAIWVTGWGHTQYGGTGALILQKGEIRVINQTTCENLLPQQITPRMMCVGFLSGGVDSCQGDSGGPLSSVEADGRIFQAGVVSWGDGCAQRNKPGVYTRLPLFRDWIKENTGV
# Procedure: as §1
Compound,cleavage rate in supernatant from human bone marrow aspirates [1],Probe Cleavage (pM/s) MMP2 (MMP2),Probe Cleavage (pM/s) MMP14 (MMP14),Probe Cleavage (pM/s) MMP9 (MMP9),Probe Cleavage (pM/s) MT-SP1 (MT-SP1)
COc1ccc2c(CC(=O)N[C@@H](CO)C(=O)N3CCC[C@H]3C(=O)N[C@@H](C)C(=O)NCC(=O)N[C@@H](CC(C)C)C(=O)N[C@@H](CO)C(=O)NCC(=O)N[C@@H](CCCNC(=N)N)C(=O)N[C@@H](CO)C(=O)NCC(=O)N[C@@H](CCCCNc3ccc([N+](=O)[O-])cc3[N+](=O)[O-])C(=O)N[C@H](CCCNC(=N)N)C(=O)O)cc(=O)oc2c1 [reference compound] (Mca-SPAGLSGRSGK(Dnp)[dR]-OH),2191 pM/s,,,,
"AIALHQSRS (also: MCA, Lys(DNP), D-Arg labels, places not given here)",,4220 pM/s,1280 pM/s,2550 pM/s,11500 pM/s
AQSRSGPWGLL (Mca-AQSRSGPWGLL-{Lys(DNP)-dR}),,726 pM/s,437 pM/s,,
HASRSGPWGLL (Mca-HASRSGPWGLL-{Lys(DNP)-dR}),,692 pM/s,424 pM/s,,
HQARSGPWGLL (Mca-HQARSGPWGLL-{Lys(DNP)-dR}),,623 pM/s,344 pM/s,,
"HQSASGPWGLL (also: MCA, Lys(DNP), D-Arg labels, places not given here)",,696 pM/s,335 pM/s,,8.00 pM/s
HQSRAGPWGLL (Mca-HQSRAGPWGLL-{Lys(DNP)-dR}),,594 pM/s,379 pM/s,,
"HQSRPWGL (also: MCA, Lys(DNP), D-Arg labels, places not given here)",,,548 pM/s,,32.0 pM/s
HQSRSAIAL (Mca-HQSRSAIAL-{Lys(DNP)-dR}),,76.9 pM/s,95.5 pM/s,41.9 pM/s,
"HQSRSAIALY (also: MCA, Gly-Lys(DNP)-D-Arg labels, places not given here) [X1 is Y]",,434 pM/s,92.7 pM/s,328 pM/s,1960 pM/s
"HQSRSAIALYA (also: MCA, Lys(DNP), D-Arg labels, places not given here) [X1 is Y and X2 is A]",,468 pM/s,300 pM/s,255 pM/s,1750 pM/s
HQSRSAPWGLL (Mca-HQSRSAPWGLL-{Lys(DNP)-dR}),,,660 pM/s,,
HQSRSGAWGLL (Mca-HQSRSGAWGLL-{Lys(DNP)-dR}),,65.4 pM/s,36.4 pM/s,436 pM/s,
HQSRSGPWALL (Mca-HQSRSGPWALL-{Lys(DNP)-dR}),,488 pM/s,475 pM/s,,
HQSRSGPWGAL (Mca-HQSRSGPWGAL-{Lys(DNP)-dR}),,61.1 pM/s,0.00 pM/s,5.9 pM/s,
HQSRSGPWGL (Mca-HQSRSGPWGL-{Lys(DNP)-dR}) [X1 absent],,94.8 pM/s,27.3 pM/s,705 pM/s,
HQSRSGPWGLA (Mca-HQSRSGPWGLA-{Lys(DNP)-dR}),,410 pM/s,345 pM/s,,
HQSRSPWG (Mca-HQSRSPWG-{Lys(DNP)-dR}),,61.6 pM/s,0.00 pM/s,86.5 pM/s,
"PWGLHQSRS (also: MCA, Lys(DNP)-D-Arg labels, places not given here)",302 pM/s,2550 pM/s,5880 pM/s,5150 pM/s,1280 pM/s
